From patent US20150203556A1 (UAB RESEARCH FOUNDATION, published 2015) come the findings set out here.

The term Kd denotes the equilibrium constant for the complex coming apart. Low values mean tighter binding, high ones weaker binding. For orientation: kon means the second-order rate constant of association. Read a high kon as fast association.

T1: IL-19 (human, UniProt Q9UHD0 25-177)
T1 construct: also called Interleukin-19; IL-19a
T1 sequence: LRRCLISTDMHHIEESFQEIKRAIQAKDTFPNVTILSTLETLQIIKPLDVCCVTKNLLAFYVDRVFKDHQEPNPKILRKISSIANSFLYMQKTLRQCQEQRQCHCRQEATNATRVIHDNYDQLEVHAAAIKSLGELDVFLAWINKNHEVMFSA

T2: IL-22 (Homo sapiens (Human), UniProt Q9GZX6 35-179, limits assumed)
T2 construct: also called IL-22 wt
T2 sequence: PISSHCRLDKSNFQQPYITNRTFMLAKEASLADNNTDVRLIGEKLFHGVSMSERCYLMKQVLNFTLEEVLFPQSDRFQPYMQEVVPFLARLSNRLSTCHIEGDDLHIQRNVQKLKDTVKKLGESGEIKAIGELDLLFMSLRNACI

T3: IL-20R1 triple mutant M3 (UniProt Q9UHF4 29-245)
T3 construct: range 29-245; also called IL-20R1 site 3 mutant
T3 sequence (looked up): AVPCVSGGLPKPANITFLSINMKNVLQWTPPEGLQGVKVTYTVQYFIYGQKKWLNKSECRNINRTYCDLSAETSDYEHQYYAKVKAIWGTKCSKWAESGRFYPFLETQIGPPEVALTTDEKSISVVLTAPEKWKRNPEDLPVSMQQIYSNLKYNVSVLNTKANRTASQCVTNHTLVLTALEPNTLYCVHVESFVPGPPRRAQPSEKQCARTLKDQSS

B1: IL22R1ddq/IL20R2-FCkh (Fc fusion)
chain 1: AHAPEDPSDLLQHVKFQSSNFENILTWDSGPEGTPDTVYSIEYKTYGERDWVAKKGCQRITRKSCDLTVETGDLQELYYARVTAVSAGGRSATKMTDRFSSLQHTTLKPPDVTCISKVRSIQMIVHPTPTPIRAGDGHRLTLEDIFHDLFYHLELQVNRTYQMHLGGKQREYEFFGLTPDTEFLGTIMICVPTWAKESAPYMCRVKTLPDRTWTYSGSGGGGPSVFIFPPKIKDVLMISLSPIVTCVVVDVSEDDPDVQISWFVNNVEVHTAQTQTHREDYNSTLRVVSALPIQHQDWMSGKEFKCKVNNKDLPAPIERTISKPKGSVRAPQVYVLPPPCEEMTKKQVTLYCMVTDFMPEDIYVEWTNNGKTELNYKNTEPVLDSDGSYFMYSKLRVEKKNWVERNSYSCSVVHEGLHNHHTTKSFSRTPGKGLEASGGLNDIFEAQKIEWHEGTGHHHHHH
chain 2: DEVAILPAPQQLSVLSTNMKHLLMWSPVIAPGETVYYSVEYQGEYESLYTSHIWIPSSWCSLTEGPECDVTDDITATVPYNLRVRATLGSQTSAWSILKHPFNRQSTILTRPGMEITKDGFHLVIELEDLGPQFEFLVAYWRREPGAEEHVKMVRSGGIPVHLETMEPGAAYCVKAQTFVKAIGRYSAFSQTECVEVQGEAGSGGGGPSVFIFPPKIKDVLMISLSPIVTCVVVDVSEDDPDVQISWFVNNVEVHTAQTQTHREDYNSTLRVVSALPIQHQDWMSGKEFKCKVNNKDLPAPIERTISKPKGSVRAPQVYVLPPPEEEMTKKQVTLTCMVTDFMPEDIYVEWTNNGKTELNYKNTEPVLDSDGSYFMTSKLRVEKKNWVERNSYSCSVVHEGLHNHHTTKSFGGCGTPASGGLNDIFEAQKIEWHE
notes: also called IL-22R1/IL-20R2-FCkh; soluble IL-22R1/IL-20R2 receptor heterodimer
B2: IL-20 (ligand)
chain: MLKTLNLGSCVIATNLQEIRNGFSEIRGSVQAKDGNIDIRILRRTESLQDTKPANRCCLLRHLLRLYLDRVFKNYQTPDHYTLRKISSLANSFLTIKKDLRLCHAHMTCHCGEEAMKKYSQILSHFEKLEPQAAVVKALGELDILLQWMEETE
notes: The crystal model holds residues 24-176; also called Interleukin-20; IL-20b

One assay has as its target T1, IL-19. Kind of assay: SPR, IL-19 as analyte over IL22R1ddq/IL20R2-FCkh as ligand. A general note: In SPR one partner is held on a chip, and binding of the other changes the refractive index at the surface.
The assay “IL-20” deals with B2. Kind of assay: SPR, IL-20 as analyte over IL22R1ddq/IL20R2-FCkh as ligand.
The next assay deals with T2, IL-22. Briefly: SPR, IL-22 as analyte over IL22R1ddq/IL20R2-FCkh as ligand.
For the assay “IL22R1ddq/IL20R2-FCkh”, the target named is B1. Briefly: SPR with the IL-22R1/IL-20R2-FCkh heterodimer.
A further assay concerns the target T3, IL-20R1 triple mutant M3. Kind of assay: SPR, IL-20 + M3 co-injected over an IL-20R2 chip. How it is done: FIGS. 9A-9D show the IL-20 site 3 interface is essential and distinct from other complexes. FIG. 9A is a ribbon diagram showing the site 3 interface between IL-20R1 and IL-20R2. FIG. 9B is a graph showing the importance of the site 3 interface in ternary complex formation. SPR sensograms obtained by injecting cytokines (IL-19 or IL-20, at 250 nM) and/or receptors (IL-20R1 or M3, at 425 nM), as labeled on the figure, over an IL-20R2 coupled biacore chip. Injection of IL-20+IL-20R1 results in a large response consistent with ternary complex formation. However, injection of IL-20+M3, an IL-20R1 site 3 mutant with S190^IL-20R1, W194^IL-20R1, and W207^IL-20R1 mutated to alanine drastically reduces binding due to disruption of ternary complex formation. Similar results are observed for complex formation by IL-19. FIG. 9C is a ribbon diagram of the superposition of the D2 domains of GHR site 1, IL-6R, and IL-20R1. The positions of the D2 domains of GHR site2, GP130, and IL-20R2 are shown, along with a schematic of the differences in their orientations. FIG. 9D is a ribbon diagram showing the putative model of the IL-22/IL-22R1/IL-10R2 complex based on the IL-20 ternary complex structure. […]

B1: the Kd in the assay with IL-19 stood at 101 nM; in the assay with IL-20, 0.99 nM; with IL-22 it was 5.15 nM. The kon in the assay with IL-22 was around 957000 M⁻¹ s⁻¹.
For B2, the “fold difference in binding affinity against IL-19” value in the assay with IL22R1ddq/IL20R2-FCkh came out at 100 fold. The binding result with IL-20R1 triple mutant M3 was “binds”.
